Measured values reported in patent US20240240160A1, “NOVEL OLIVETOL SYNTHASES FOR C[…]” (priority 2021, published 2024).

Key:
[1] = test system: AAZ32094.1 from Oncidium hybrid cultivar (SEQ ID NO:2); assay: Product inhibition assay with butyryl-CoA and malonyl-CoA; format: biochemical; conditions: increasing concentrations of the added product
Protocol: (§1) Assays were performed in a total volume of 50 μL in 100 mM Tris, pH 7.5 buffer containing 100 μM malonyl-CoA; 100 µM hexanoyl-CoA; a malonyl-CoA regenerating system comprising malonyl-CoA synthetase, excess malonate, and ATP; and excess purified olivetolic acid cyclase (OAC). The major product in this assay was olivetolic acid (OLA), and the triketide pentyl diacetic acid lactone (PDAL) was a side product. N-His-tagged purified enzymes were assayed under these assay conditions at enzyme concentrations and reaction times suitable for initial rate measurements of product formation. Reactions were initiated by addition of the PKS, then incubated for 30 min. Subsequently, 10 μL of reaction solution was removed and quenched into 15 volumes of 75% acetonitrile containing 0.1% formic acid and internal standards, then centrifuged to pellet denatured protein. Supernatants were transferred to fresh plates for LC-MS analysis of OLA, olivetol (OL), and PDAL as described in the Method section above.
(§2) Assays were performed as described in Example 3 with the following exception: instead of hexanoyl-CoA (C6), butyryl-CoA (C4) was used as substrate along with malonyl-CoA, in order to evaluate the inhibitory effect of the products with hexanoyl-CoA (i.e., OLA, OL and PDAL) on the activity of the enzymes. Accordingly, the products in this assay were the tetraketides divarinic acid (DVA) and divarinol (DVL) and the triketide propyl diacetic acid lactone (propyl-DAL) (see FIG. 4). The rates to form these products were measured in the presence of various concentrations of OLA, OL, and PDAL.

OLS from C. sativa = biological target: T1, OLS from C. sativa (Cannabis sativa, UniProt B1Q2B6); assay: as above; format: biochemical
T1 construct: made in house
T1 sequence (B1Q2B6 1-385): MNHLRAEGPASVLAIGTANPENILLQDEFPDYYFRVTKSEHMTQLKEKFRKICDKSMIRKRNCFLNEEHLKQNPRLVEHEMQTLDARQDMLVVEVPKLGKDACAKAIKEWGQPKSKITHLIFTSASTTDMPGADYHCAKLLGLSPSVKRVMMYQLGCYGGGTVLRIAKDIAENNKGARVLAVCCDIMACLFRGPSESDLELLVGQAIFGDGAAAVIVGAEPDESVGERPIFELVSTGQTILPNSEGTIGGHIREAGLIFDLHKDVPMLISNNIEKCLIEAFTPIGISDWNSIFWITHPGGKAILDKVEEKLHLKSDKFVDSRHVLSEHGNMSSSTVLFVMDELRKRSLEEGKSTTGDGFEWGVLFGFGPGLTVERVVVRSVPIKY
Protocol: as §1, §2

[2] = test system: QDX46968.1 from Anoectochilus roxburghii (SEQ ID NO:6); assay: as above; format: biochemical; conditions: increasing concentrations of the added product
Protocol: as §1, §2

[3] = test system: E. coli derivative strain which overexpressed an acyl-CoA synthetase (fadD) gene and expressed an olivetolic acid cyclase (OAC) from Cannabis sativa; assay: OL, OLA and PDAL production in E. coli from plasmid-expressed Type-III PKS genes; format: cell-based; conditions: gene on plasmid; for Total: OL + OLA + PDAL; for OL / OLA / PDAL: constitutive promoter, culture spiked with 4 mM hexanoic acid
Protocol: (§3) To test olivetolic acid production in E. coli, strains comprising a putative OLS gene and an OAC gene from C. sativa were inoculated in multi-well plates containing LB supplemented with 1% glucose and appropriate concentrations of antibiotics. After 6 hours of cultivation at 32° C., the cells were transferred with a 10% inoculum to a P-limited seed medium (see Table 2) and cultivated for ˜18 hours at 32° ° C. to reach an OD of 2.0-4.0. The cultures were transferred with a 20% inoculum in a P-minimal medium (see Table 3) supplemented with 2% glucose and appropriate concentrations of antibiotics. After 3 hours of cultivation at 32° C., the culture was spiked with 4 mM hexanoic acid (˜OD 1.5-2.0). The resulting cultures were then harvested at either 3 hours or 21 hours post hexanoic acid spike; a final OD was taken. 300 μL of butyl acetate containing 500 mg/L undecanoic acid was added to each multi-well plate. The plates were then vortexed for 30 minutes at 1500 rpm and centrifuged for 10 minutes at 4500 rpm. 50 μL of organic layer was transferred to a 96-well plate and derivatized with 50 μL of N,O-Bis(trimethylsilyl)trifluoroacetamide (BSTFA). The plate was then incubated at room temperature for 2 hours to allow for complete derivatization. The samples were then run on GC-FID for analytical quantification of olivetolic acid (OLA), olivetol (OL), PDAL, and hexanoic acid.
(§4) Olivetol, PDAL, OLA, HTAL, CBGA and combinations thereof were analyzed by LCMS or LCMS/MS methods using C18 reversed phase chromatography coupled to either EXACTIVE™ (ThermoFisher) or QTRAP® 4500 (Sciex) mass spectrometers.
(§5) For reversed phase LCMS, compounds were identified by their LC retention times and MRM transitions specific to the compounds. LCMS/MS analysis was conducted on a Shimadzu UHPLC system coupled with AB Sciex QTRAP 4500 mass spectrometer. Agilent Eclipse XDB C18 column (4.6×3.0 mm, 1.8 μm) was used with a 1-min gradient elution at 1 mL/min using water containing 0.1% ammonia acetate as mobile phase A and 90% methanol containing 0.1% ammonia acetate as mobile phase B. The LC column temperature was maintained at 45° C. Negative ionization mode was used for all the analytes.
The genes for 20 Type-III PKS enzymes were codon optimized for E. coli and cloned under control of a constitutive promoter into an expression vector (p15a replicon, carbenicillin resistance marker). The 20 plasmids were transformed into an E. coli derivative strain which overexpressed an acyl-CoA synthetase (fadD) gene and expressed an olivetolic acid cyclase (OAC) from Cannabis sativa.
(§6) The in vivo assay procedure and analytical methods were performed as described above.

[4] = test system: E. coli derivative strain which overexpressed an acyl-CoA synthetase (fadD) gene and expressed an olivetolic acid cyclase (OAC) from Cannabis sativa; assay: OL, OLA and PDAL production in E. coli from genome-integrated Type-III PKS genes; format: cell-based; conditions: for Total: OL + OLA + PDAL; for OL / OLA / PDAL: constitutive promoter, 4 mM hexanoic acid
Protocol: as §3, §4, §5
Three of the type-III PKS genes from Example 1 were integrated under control of a constitutive promoter into an E. coli derivative strain which overexpressed an acyl-CoA synthetase (fadD) gene and expressed an olivetolic acid cyclase (OAC) from Cannabis sativa.
as §6

Molecule | effect on formation of the tetraketide products (DVL+DVA) [1] | effect on the triketide product propyl-DAL [1] | amount of DVA+DVL formed by the enzyme (OLS from C. sativa; at 1 mM of the added product, butyryl-CoA substrate) | enzyme activity (OLS from C. sativa; at 2 mM of the added product) | effect on formation of the tetraketide products (DVL+DVA) [2] | effect on the triketide product propyl-DAL [2] | Total [3] | levels of OLA relative to the E. coli strain with OLS from C. sativa [3] | OL [3] | OLA [3] | PDAL [3] | products produced by strains with chromosomally expressed enzyme [4] | Total [4] | OL [4] | OLA [4] | PDAL [4]
CCCCCc1cc(O)cc(O)c1 [OL, olivetol] | not inhibited | decreased | 2 µM | almost completely inactive | not inhibited | decreased |  |  |  |  |  |  |  |  |  | 
QCO76957.1: Type-III PKS enzyme from Dendrobium officinale (protein, Dendrobium officinale; (1)..(390) QCO76957.1) MPSLESIRKAPRANGFASILAIGRANPENFIEQSTYPDFFFRITNSEHLVDLKKKFQRICDKTAIRKRHFVWNEEFITTNPCLHTFMDKSLDVRQEVAIREIPKLGAKAAAKAIQEWGQPKSRITHLIFCTTSGMDLPGADYQLTQILGLNPNVERVMLYQQGCFAGGTTLRLAKCLAESRKGARVLVVCAETTTVLFRGPSEEHQEDLVTQALFADGASALIVGADPDEAAHERASFVIVSTSQVLLPDSAGAIGGHVSEGGLLATLHRDVPKIVSKNVEKCLEEAFTPFGITDWNSIFWVPHPGGRAILDLVEERVGLKPEKLLVSRHVLAEYGNMSSVCVHFALDEMRKRSAIEGKATTGEGLEWGVVFGFGPGLTVETVVLRSVPL |  |  |  |  |  |  | 2095 µM | over two-fold | 579 µM | 754 µM | 761 µM | produced olivetol (OL), olivetolic acid (OLA) and pentyl diacetic acid lactone (PDAL) | 483 µM | 178 µM | 223 µM | 82 µM
A0A0D9W1R8: Type-III PKS enzyme from Leersia perrieri (protein, listed as Leersia perrieri, (1)..(402) ProtKB - A0A0D9W1R8) MGSQGEYYNKEGRGQAAILGIGSAVPPYELPQSSFPDYYFDVSNSNHRQDLKAKFAKICERTMIEKRCVYMSEEFLRSNPSVTAYSSPSIDVRQRLTDATVPELGAAAARVAIADWGRPASEISHLVMCSTVSGCMPGADYEVVKLLGLPLSTKRCMMYHIGCHGGGTVLRIAKDIAENNPGARVLVVCSEVISMALRGPSDSNMGNLVGQALFGDAGAAVVVGTDPVESCGERALFEMVAAMQDIIPDTEEMVAKLREDGLLYSLHRDVPVHIEANIEAIVNKSGVGAKAADWNEDVFWLVHPGGRDILDRVARRLGLRHDKVEVSREVMRKHGNTLSSCVVIAMEEMRRRSAERGMGTAGEGLEWGLLFGFGPGLTVETILLRAPLTHPPPCAHAAVRPQ |  |  |  |  |  |  | 0 µM |  | 0 µM | 0 µM | 0 µM |  |  |  |  | 
AIM58716.1: Type-III PKS enzyme from Cymbidium hybrid cultivar (protein, Cymbidium hybrid cultivar; (1)..(390) AIM58716.1) MPSLESVKKSNRADGFASILAIGRANPENFIEQSTYPDFFFRVTNSEHLVNLKKKFQRICDKTAIRKRHFVWNEELLNANPCLGTFMDNSLNVRQEFAIREIPKLGAEAATKAIQEWGQPKSRITHLIFCTTSGMDLPGADYQLTQILGLNPNIERVMLYQQGCFAGGTTLRLAKCLAESRKGARVLVVCAETTAVLFRAPSEEHQDDLVTQALFADGASALIVGADPDETAHERASFVIVSTSQVLLPDSAGAIGGHVSEGGLIATLHRDVPQIVSKNVGKCLEEAFTPLGISDWNSIFWVPHPGGRAILDQVEERVGLKPEKLIVSRHVLAEYGNMSSVCVHFALDEMRKRSKKEGKATTGEGLDWGVLFGFGPGLTVETVVLHSVPI |  |  |  |  |  |  | 1045 µM |  | 427 µM | 436 µM | 181 µM | produced olivetol (OL), olivetolic acid (OLA) and pentyl diacetic acid lactone (PDAL) | 927 µM | 249 µM | 472 µM | 206 µM
B1Q2B6: Cannabis sativa olivetol synthase (OLS), 3,5,7-trioxododecanoyl-CoA synthase (protein, listed as Cannabis sativa, (1)..(385) B1Q2B6 OLIS_CANSA 3,5,7-trioxododecanoyl-CoA synthase) MNHLRAEGPASVLAIGTANPENILLQDEFPDYYFRVTKSEHMTQLKEKFRKICDKSMIRKRNCFLNEEHLKQNPRLVEHEMQTLDARQDMLVVEVPKLGKDACAKAIKEWGQPKSKITHLIFTSASTTDMPGADYHCAKLLGLSPSVKRVMMYQLGCYGGGTVLRIAKDIAENNKGARVLAVCCDIMACLFRGPSESDLELLVGQAIFGDGAAAVIVGAEPDESVGERPIFELVSTGQTILPNSEGTIGGHIREAGLIFDLHKDVPMLISNNIEKCLIEAFTPIGISDWNSIFWITHPGGKAILDKVEEKLHLKSDKFVDSRHVLSEHGNMSSSTVLFVMDELRKRSLEEGKSTTGDGFEWGVLFGFGPGLTVERVVVRSVPIKY |  |  |  |  |  |  | 1072 µM |  | 324 µM | 279 µM | 470 µM |  |  |  |  | 
XP_020572025.1: Type-III PKS enzyme from Phalaenopsis equestris (protein, listed as Phalaenopsis equestris, (1)..(393) XP_020572025.1) MPSFPSVKKAPTAEGFASILAIGRANPENFIEQSAYPDFFFRVTNSEHLVDLKKKFQRICDKTAIRKRHFVWNEEFLTANPCFSTFMDKSLNVRQEVAIREIPKLGAKAATKAIEDWGQPKSRITHLIFCTTSGMDLPGADYQLTQILGLNPNVERVMLYQQGCFAGGTTLRLAKCLAESRKGARVLVVCAETTTVLFRAPSEEHQDDLVTQALFADGASAVIAVIVGADPDEAADERASFVIVSASQVLLPDSAGAIGGHVSEGGLLATLHRDVPQIVSKNVGKCLEEAFTPFGISDWNSIFWVPHPGGRAILDQVEERVGLKPEKLSVSRHVLAEYGNMSSVCVHFALDEMRKRSAKEGKATTGEGLEWGVLFGFGPGLTVETVVLQSVPI |  |  |  |  |  |  | 0 µM |  | 0 µM | 0 µM | 0 µM |  |  |  |  | 
